Results as given in patent publication US20240150440A1 (LUMEN BIOSCIENCE, published 2024).

B1: PP886 MBP-S1a-C4-H6 (VHH)
VHH: QVQLVESGGGLVQPGGSLRLSCAASGSRDSINTAHWYRQAPGKAREWVASLDNSTTGSYADSVKGRFTISRDNAKNTVYLQMNSLKPEDTAVYYCAAVTGTPGGLGFYDYWGQGTQVTVSS
B2: PP905 MBP-5HVZ-S1a-C4-H6 (VHH)
VHH: QVQLVESGGGLVQPGGSLRLSCAASGSRDSINTAHWYRQAPGKAREWVASLDNSTTGSYADSVKGRFTISRDNAKNTVYLQMNSLKPEDTAVYYCAAVTGTPGGLGFYDYWGQGTQVTVSS
notes: Form: Dimer
B3: PP910 MBP-5HVZ-S2b-C10-H6 (VHH)
VHH: QVQLVESGGGLVQPGGSLRLSCAASGSAFSLNYMAWFRQAPGKQREGVAIIGSGGSSDYADSVKGRFTISRDNAKNTVYLQMNSLKPEDTAVYYCAAQPNGSPDDFDYWGQGTQVTVSS
notes: Form: Dimer
B4: PP880 MBP-R5a-B5-H6 (VHH)
VHH: QVQLVESGGGLVQPGGSLRLSCAASGDDFIENAISWYRQAPGKGREWVAAVTLGGHSNYADSVKGRFTISRDNAKNTVYLQMNSLKPEDTAVYYCNYPVGIPAVAIDGRRSYGYWGQGTQVTVSS
notes: Form: Monomer
B5: PP788 (VHH, not shown: large carriers; small tags and cut ends)
VHH: QVQLVESGGGLVQPGGSLRLSCAASGSIESINAIHWFRQAPGKAREEVAAITENDVDYYADSVKGRFTISRDNAKNTVYLQMNSLKPEDTAVYYCASLSSGYQYVGFRYWGQGTQVTVSS
B6: PP1141 MBP-4B0F-PAPA-R5d-D4-H6 (VHH)
VHH: QVQLVESGGGLVQPGGSLRLSCAASGSDFTINAMHWFRQAPGKQREFVATITSTSSTAYRDSVKGRFTISRDNAKNTVYLQMNSLKPEDTAVYYCAAFAVRDADTAGWTARDYWGQGTQVTVSS
notes: Form: Heptamer
B7: PP901 MBP-5HVZ-R1e-B2-H6 (VHH)
VHH: QVQLVESGGGLVQPGGSLRLSCAASGQITAENYMHWYRQAPGKQREWVAAITTGGSTLYADSVKGRFTISRDNAKNTVYLQMNSLKPEDTAVYYCNADRSYFPDYWGQGTQVTVSS
notes: Form: Dimer
B8: PP888 MBP-S1b-E11-H6 (VHH)
VHH: QVQLVESGGGLVQPGGSLRLSCAASGSYASIASMHWFRQAPGKEREFVAGVTSGGSTNYGDSVKGRFTISRDNAKNTVYLQMNSLKPEDTAVYYCNALAGANYESQWEEYNYWGQGTQVTVSS
notes: Form: Monomer
B9: PP885 MBP-R5b-C5-H6 (VHH)
VHH: QVQLVESGGGLVQPGGSLRLSCAASGSPFKTQTVHWFRQAPGKGREWVASITSGSGTQYMDSVKGRFTISRDNAKNTVYLQMNSLKPEDTAVYYCAAANDGYGVDWGQGTQVTVSS
notes: Form: Monomer
B10: PP904 MBP-5HVZ-R5b-C5-H6 (VHH)
VHH: QVQLVESGGGLVQPGGSLRLSCAASGSPFKTQTVHWFRQAPGKGREWVASITSGSGTQYMDSVKGRFTISRDNAKNTVYLQMNSLKPEDTAVYYCAAANDGYGVDWGQGTQVTVSS
notes: Form: Dimer
B11: PP922 MBP-R5a-F5-H6 (VHH)
VHH: QVQLVESGGGLVQPGGSLRLSCAASGYHASILAMHWVRQAPGKEREWVASMTWSDMTQYSDSVKGRFTISRDNAKNTVYLQMNSLKPEDTAVYYCAATYVTRDRPWTHWGQGTQVTVSS
notes: Form: Monomer
B12: PP928 MBP-5HVZ-R1i-E7-H6 (VHH)
VHH: QVQLVESGGGLVQPGGSLRLSCAASGTEYDISAAHWYRQAPGKQREWVAGVTSDNSTFYADSVKGRFTISRDNAKNTVYLQMNSLKPEDTAVYYCTATVKTSQYRYWGQGTQVTVSS
B13: PP1177 MPB-scTRP-PAPA-R2a-F3-H6 (VHH)
VHH: QVQLVESGGGLVQPGGSLRLSCAASGSITSINWMHWFRQAPGKDREGVASISQTGRGSYADSVKGRFTISRDNAKNTVYLQMNSLKPEDTAVYYCAAASRTGTPYNYWGQGTQVTVSS
notes: Form: Trimer
B14: PP887 MBP-S1b-E7-H6 (VHH)
VHH: QVQLVESGGGLVQPGGSLRLSCAASGGEFSDNGLHWFRQAPGKQREFVATASSDGSTQYRDSVKGRFTISRDNAKNTVYLQMNSLKPEDTAVYYCTALLMSSAGEYDVWGQGTQVTVSS
notes: Form: Monomer
B15: PP881 MBP-R5a-F2-H6 (VHH)
VHH: QVQLVESGGGLVQPGGSLRLSCAASGSISSIEAMSWFRQAPGKQREGVATMASGGDTSYADSVKGRFTISRDNAKNTVYLQMNSLKPEDTAVYYCAAQTYRPDTWGRYTFWGQGTQVTVSS
notes: Form: Monomer
B16: PP884 MBP-R1i-A11-H6 (VHH)
VHH: QVQLVESGGGLVQPGGSLRLSCAASGSILQINAIHWFRQAPGKQREEVAAITSGGSTGYADSVKGRFTISRDNAKNTVYLQMNSLKPEDTAVYYCAATSTRGGLDSDYWGQGTQVTVSS
notes: Form: Monomer
B17: PP883 MBP-R1e-D4-H6 (VHH)
VHH: QVQLVESGGGLVQPGGSLRLSCAASGSIREINAMHWVRQAPGKGRELVASIDSGSLDYYADSVKGRFTISRDNAKNTVYLQMNSLKPEDTAVYYCAASRSGDYRYWGQGTQVTVSS
notes: Form: Monomer
B18: PP902 MBP-5HVZ-R1e-D4-H6 (VHH)
VHH: QVQLVESGGGLVQPGGSLRLSCAASGSIREINAMHWVRQAPGKGRELVASIDSGSLDYYADSVKGRFTISRDNAKNTVYLQMNSLKPEDTAVYYCAASRSGDYRYWGQGTQVTVSS
notes: Form: Dimer
B19: PP913 MBP-5HVZ-S3a-C5-H6 (VHH)
VHH: QVQLVESGGGLVQPGGSLRLSCAASGSIKNTNAMHWFRQAPGKDREWVAGITSGGNSNYGDSVKGRFTISRDNAKNTVYLQMNSLKPEDTAVYYCAAFGYRYDQDYTYDYWGQGTQVTVSS
notes: Form: Dimer
B20: PP806 MBP-R2B-E6-H6 (VHH)
VHH: QVQLVESGGGLVQPGGSLRLSCAASGGVTRGNAMAWYRQAPGKQREIVAAIDNGGSHAYGDSVKGRFTISRDNAKNTVYLQMNSLKPEDTAVYYCAVFPDHDSEQASIDRVYWGQGTQVTVSS
notes: Form: Monomer
B21: PP823 MBP-R5B-C3-H6 (VHH)
VHH: QVQLVESGGGLVQPGGSLRLSCAASGGISVANVMHWFRQAPGKEREGVAGLTSEGSRYYADSVKGRFTISRDNAKNTVYLQMNSLKPEDTAVYYCAAEPTGNTHEFEYWGQGTQVTVSS

What was measured:
[1] = biological target: SARS-CoV-2 spike protein on pseudotyped lentivirus (Wuhan Reference Pseudovirus) (SARS-CoV-2, UniProt P0DTC2 14-1273); assay: cell-based or functional assay
[2] = biological target: T1, SARS-CoV-2 Alpha Variant RBD (SARS-CoV-2 Alpha variant); assay: ELISA, RBD coated
T1 construct: domain: RBD; coated on ELISA plates

[3] = biological target: T2, SARS-CoV-2 Gamma Variant RBD (SARS-CoV-2 Gamma variant); assay: ELISA, RBD coated
T2 construct: domain: RBD; coated on ELISA plates

[4] = biological target: T3, SARS-CoV-2 Beta Variant RBD (SARS-CoV-2 Beta variant); assay: ELISA, RBD coated
T3 construct: domain: RBD; coated on ELISA plates

Row | Binder | infectivity % under 10 ug/mL VHH treatment [1] | EC50 [2] | EC50 [3] | EC50 [4]
1 | B1 | 84.8% |  |  | 
2 | B2 | 75.7% | 447 nM |  | 
3 | B3 | 65.1% |  |  | 
4 | B4 | 58% |  |  | 
5 | B5 |  | 5.88 nM | 16.8 nM | 27.6 nM
6 | B6 | 73.1% |  |  | 
7 | B7 | 72.1% |  |  | 
8 | B8 | 80% |  |  | 
9 | B9 | 101% |  |  | 
10 | B10 |  | 13 nM | 34.6 nM | 139 nM
11 | B11 | 67.7% |  |  | 
12 | B12 | 78.5% |  |  | 
13 | B13 | 51.1% |  |  | 
14 | B14 | 85.7% |  |  | 
15 | B15 | 83.2% |  |  | 
16 | B16 | 91.3% |  |  | 
17 | B17 | 94.3% |  |  | 
18 | B18 | 72.4% | 123 nM | 451 nM | 
19 | B19 |  | 1.33 nM | 61.1 nM | 114 nM
20 | B20 | 86.5% |  |  | 
21 | B21 | 65.5% |  |  | 
